This experiment addresses AtSAR1c-GFP (Arabidopsis thaliana) (UniProt O04834). Nature of the experiment: co-IP.
UniProt O04834, sequence (O04834 whole entry): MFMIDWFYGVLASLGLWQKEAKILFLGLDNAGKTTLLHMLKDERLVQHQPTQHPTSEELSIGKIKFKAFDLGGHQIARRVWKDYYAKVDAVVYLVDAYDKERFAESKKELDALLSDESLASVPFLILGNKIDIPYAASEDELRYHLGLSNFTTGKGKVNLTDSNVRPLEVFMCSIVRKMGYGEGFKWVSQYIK

For “endogenous AtPHF1 (from UniProt Q8GYE0 1-398) (natural protein)”, the fold co-immunoprecipitated against AtSAR1b[H74L]-CFP was determined as 4 fold; the fold co-immunoprecipitated against GFP was found to be 3 fold; the fold co-immunoprecipitated against GFP, normalised, Pi deficiency was found to be 30 fold.

(Values after article doi:10.1101/2025.01.09.632146.)
